Data from US20120039915A1.

Molecular target: antigen bound by the GC4 antibody on GBM tumor sphere cells (target antigen not determined)
Test: FACS on GBM tumor sphere cells at RT, MFI fitted (apparent dissociation constant)

Kd: 79.7 nM
B1: recombinant human GC4 IgG1 (antibody, V domains shown)
VH: QVQLVESGGGLVQPGGSLRLSCAASGFTFGTYDMSWVRQAPGKGLEWVSGISGSGGSTYYADSVKGRFTISRDNSKNTVYLQMNSLRVEDTAVYYCARGGWYSDNWGQGTLVTVSS
VL: SELTQDPAVSVALGQTVRITCQGGSLRSYYASWYQQKPGQAPLLVIYGENNRPSGIPDRFSGSSSGNTASLTITGAQAEDEADYYCHSRDSSGNHVVFGGGTKLTV
